For 2 substances, Kd results are on record in article PMC6389977.

The assay deals with purified recombinant human GAPDH protein (human) (UniProt P04406). Briefly: SPR. (In SPR one partner is held on a chip, and binding of the other changes the refractive index at the surface.)
purified recombinant human GAPDH protein (human), sequence (P04406 whole entry): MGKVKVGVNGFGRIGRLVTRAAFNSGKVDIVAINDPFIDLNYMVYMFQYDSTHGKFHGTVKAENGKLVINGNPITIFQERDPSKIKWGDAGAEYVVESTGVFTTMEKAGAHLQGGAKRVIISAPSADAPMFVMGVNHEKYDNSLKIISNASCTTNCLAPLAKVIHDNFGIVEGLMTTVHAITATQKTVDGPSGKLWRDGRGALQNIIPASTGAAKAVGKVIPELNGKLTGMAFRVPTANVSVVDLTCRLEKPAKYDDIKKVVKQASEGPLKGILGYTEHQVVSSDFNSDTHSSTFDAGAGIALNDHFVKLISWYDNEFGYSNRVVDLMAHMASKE

DENV2 NS3 protease domain (domain or fragment), sequence (P14340 1476-1660 limits assumed): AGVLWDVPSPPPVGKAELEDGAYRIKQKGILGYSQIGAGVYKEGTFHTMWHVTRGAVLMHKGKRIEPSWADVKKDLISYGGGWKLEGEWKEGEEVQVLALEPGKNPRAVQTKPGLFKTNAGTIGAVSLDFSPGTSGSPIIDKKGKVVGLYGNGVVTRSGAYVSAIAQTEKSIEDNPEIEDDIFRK
DENV2 NS3 helicase domain (domain or fragment), sequence (P14340 1644-2093 limits assumed): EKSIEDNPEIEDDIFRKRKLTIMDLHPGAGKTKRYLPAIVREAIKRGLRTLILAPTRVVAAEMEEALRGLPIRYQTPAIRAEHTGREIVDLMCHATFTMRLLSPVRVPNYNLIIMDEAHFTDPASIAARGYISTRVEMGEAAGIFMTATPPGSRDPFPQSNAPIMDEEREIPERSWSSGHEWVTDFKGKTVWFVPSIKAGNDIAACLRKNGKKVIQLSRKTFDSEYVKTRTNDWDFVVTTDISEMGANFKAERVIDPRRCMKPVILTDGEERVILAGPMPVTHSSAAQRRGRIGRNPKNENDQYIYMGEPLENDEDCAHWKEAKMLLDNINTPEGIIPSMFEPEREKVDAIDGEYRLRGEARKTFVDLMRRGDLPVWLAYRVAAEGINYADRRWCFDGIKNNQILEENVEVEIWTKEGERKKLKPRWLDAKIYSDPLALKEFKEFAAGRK

For “DENV2 NS3 helicase domain (domain or fragment)”, the Kd (commonly the equilibrium constant for the complex coming apart) stood at 2500 nM.

Take “DENV2 NS3 protease domain (domain or fragment)”: the Kd turned out to be 2400 nM.
